Like-named read-outs stand apart in the source and are kept apart here.
What was measured:
FAM-WAY(Kme3)TGK peptide = assay: fluorescence polarisation; protein serially diluted with 10 nM FAM peptide; 25 mM HEPES pH 7.5, 100 mM NaCl, 0.05% NP-40; anisotropy fitted by specific binding with Hill slope
[1] = target: FAM-KAK(Kme3)TGK peptide (human); assay: as above
[2] = target: FAM-KAK(Kme3)TGK peptide (human); assay: as above; remark: listed apart in the source
[3] = target: FAM-TAR(Kme3)STG peptide (H3K9me3); assay: as above
[4] = target: biotinylated H3(1-20)K9me2 peptide; assay: Kme-OPL pulldown fluorescence assay (GST-tagged reader domain); conditions: parent: est. 1300; read off a plot

Chain of M Phase Phosphoprotein 8 chromodomain (Q99549 55-116): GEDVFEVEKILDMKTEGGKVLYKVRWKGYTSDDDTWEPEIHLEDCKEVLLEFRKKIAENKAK

Substance	fold tighter than the H3K9me3 peptide (FAM-WAY(Kme3)TGK peptide) [fold]	Kd [1] [nM]	Kd [2] [nM]	Kd [3] [nM]	fold tighter than the H3K9me3 peptide [1] [fold]	response (RFU (GST-subtracted fluorescence)) [4]
Chromodomain Y-like protein 2 chromodomain (domain or fragment)	100	3600	–	–	–	–
M Phase Phosphoprotein 8 chromodomain (from UniProt Q99549 55-116) (domain or fragment)	–	840	660	5400	10	–
M Phase Phosphoprotein 8 chromodomain (from UniProt Q99549) W80A	–	–	–	–	–	150

Reference: paper PMC7160673, “A Degenerate Peptide Library Approach to Reveal Sequence Determinants of Methyllysine-Driven Protein Interactions” (Frontiers in Cell and Developmental Biology, 2020)
